Data set [1] has as its target human NEP (hNEP), endopeptidase 24.11 (Homo sapiens, UniProt P08473). The experiment in a line: in vitro. As to conditions: Half-Life (min.).
Description: The half-life of various ANF variants was measured according to the following procedure.
ANF Solution: An accurately weighed amount of ANF or variant thereof was diluted with HEPES buffer (5 ml of 1 M HEPES Buffer and 0.1 ml of Tween 20 diluted to a 100 ml volume with DI water) to make a 0.5 mg/ml solution.
hNEP/HEPES Solution: 7.5 μl of a 1 mg/ml solution of hNEP (see U.S. Pat. No. 4,960,700) is dissolved in 992.5 μl of HEPES buffer (as described above) and vortex mixed. The resulting mixture is stored in a silylated Eppendorf tube and periodically checked for activity against an ANF peptide standard.
Assay conditions: 150 μl of an ANF solution in the HEPES buffer is diluted with 820 μl HEPES buffer and vortex mixed (1 sec). Careful note of the time is taken as 30 μl of the hNEP/HEPES solution is added and the solution is vortex mixed for 1 sec. and analyzed by periodic removal of constant volume aliquots by the HPLC autosampler. A 2.5 cm×50 cm, C-18 reversed-phase column (15 micron, 300 Å]) was used and elution was achieved by using a shallow gradient of increasing acetonitrile. The elution conditions consisted of a 10% to 50% acetonitrile (containing 0.1% TFA) gradient at 0.5% min.^−1. The aqueous phase was 0.1% TFA in water. The peak area of the ANP peptide is recorded at these periodic intervals and a half-life is determined from these values.
The target in data set [2] is T1, human natriuretic peptide receptor-A expressed in 293 cells (Homo sapiens, UniProt P16066).
T1 construct: expressed in transfected cells
T1 sequence (P16066 33-1061): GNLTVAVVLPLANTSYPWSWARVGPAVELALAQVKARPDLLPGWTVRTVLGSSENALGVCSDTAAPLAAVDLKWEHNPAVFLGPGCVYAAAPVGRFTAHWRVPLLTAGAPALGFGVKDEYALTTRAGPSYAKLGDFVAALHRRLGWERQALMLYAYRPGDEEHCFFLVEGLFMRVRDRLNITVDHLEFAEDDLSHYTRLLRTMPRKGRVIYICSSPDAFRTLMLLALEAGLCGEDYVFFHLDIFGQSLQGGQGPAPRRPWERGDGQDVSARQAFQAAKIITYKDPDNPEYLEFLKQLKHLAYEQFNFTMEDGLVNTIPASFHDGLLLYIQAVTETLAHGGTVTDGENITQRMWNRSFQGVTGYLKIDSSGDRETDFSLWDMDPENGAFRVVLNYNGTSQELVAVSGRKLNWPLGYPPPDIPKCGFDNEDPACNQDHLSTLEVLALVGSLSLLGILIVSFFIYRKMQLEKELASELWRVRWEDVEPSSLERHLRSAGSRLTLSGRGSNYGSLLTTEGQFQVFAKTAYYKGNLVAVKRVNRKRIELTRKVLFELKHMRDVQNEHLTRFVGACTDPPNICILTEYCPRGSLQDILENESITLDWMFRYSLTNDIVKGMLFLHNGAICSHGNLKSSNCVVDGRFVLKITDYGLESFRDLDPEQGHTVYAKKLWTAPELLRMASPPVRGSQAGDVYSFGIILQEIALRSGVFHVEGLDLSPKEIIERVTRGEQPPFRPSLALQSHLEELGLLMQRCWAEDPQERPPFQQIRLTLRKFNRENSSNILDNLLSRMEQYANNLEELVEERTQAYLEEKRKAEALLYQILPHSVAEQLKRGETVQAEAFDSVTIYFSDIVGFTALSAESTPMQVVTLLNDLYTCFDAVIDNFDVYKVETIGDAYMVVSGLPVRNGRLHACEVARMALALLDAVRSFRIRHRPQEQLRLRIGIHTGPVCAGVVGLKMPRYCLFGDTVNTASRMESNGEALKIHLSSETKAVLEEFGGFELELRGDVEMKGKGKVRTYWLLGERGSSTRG
The experiment in a line: cGMP production in 293 cells expressing hNPR-A. It is filed as cell-based. As for the experimental part: Stable 293 cell lines were maintained in glycine free F-12/Dulbecco's minimal essential medium (50/50, v/v) with 10% dialyzed fetal calf serum, 10 mM Hepes, […] of G418 (Geneticin, GIBCO/BRL), pH 7.2, in a humidified incubator at 37° C. with 7% CO2, 93% air. Cells were passaged using 136.8 mM NaCL, 2.6 mM KCl, 7.9 mM Na2HPO4, 1.4 mM KH2PO4, pH 7.2 (PBS) with 0.5 mM EDTA. For concentration-response experiments log phase cultures of 293 cell lines were passaged to 12 well plates at a density of 2.5×10^5 cells/well. After 48 hours cultures were approximately 50% confluent, and were used for stimulation of cGMP production. Peptide treatments were carried out essentially as described by Lowe and Fendly (1992). Briefly, dried peptide aliquots were resuspended in 0.1% (v/v) acetic acid to a stock concentration of 50 μM, and diluted to 1 μM in F-12/Dulbecco's minimal essential medium (50/50, v/v) with 25 mM Hepes, 0.1% (w/v) bovine serum albumin, 0.1 mM isobutylmethylxanthine at pH 7.2 (stimulation medium). Five-fold serial dilutions were prepared in stimulation medium using polypropylene tubes, then prewarmed to 37° C. before use. Cell culture medium was aspirated prior to adding 0.5 ml of stimulation medium plus peptides to monolayer cultures for 10 minutes at 37° C. Reactions were stopped by addition of 0.5 ml of ice cold 12% trichloroacetic acid to give a final volume of 1 ml. Culture plates were frozen on dry ice and stored at −20° C. prior to assay. For cGMP measurements samples were thawed at room temperature, and processed as described by Koller et al., Science 252:120-123 (1991), for cGMP radioimmunoassay (Biomedical Technologies, Inc). All stimulations were performed in triplicate, and samples were measured in duplicate for cGMP by radioimmumoassay. Predicted peptide concentrations were corrected based on quantitative amino acid analysis of duplicate samples from the same set of peptide aliquots used for the stimulation experiments.
Data analysis. The competition binding curves and cGMP production dose responses were analyzed by the four-parameter logistic equation with the KaleidaGraph™ program (Synergy Software, PA) to obtain estimates of the IC50 or EC50 values. The non linear least-squares curve fitting program SCATPLOT was used to analyze the competition binding curves according to a one-site or two-site binding model for competitor. A two-site binding model is reported when the fit to the data was statistically better (p<0.05) than a one-site fit.

In the next data set the target is T2, hNPR-C (Homo sapiens, UniProt P17342).
T2 sequence (P17342 27-541): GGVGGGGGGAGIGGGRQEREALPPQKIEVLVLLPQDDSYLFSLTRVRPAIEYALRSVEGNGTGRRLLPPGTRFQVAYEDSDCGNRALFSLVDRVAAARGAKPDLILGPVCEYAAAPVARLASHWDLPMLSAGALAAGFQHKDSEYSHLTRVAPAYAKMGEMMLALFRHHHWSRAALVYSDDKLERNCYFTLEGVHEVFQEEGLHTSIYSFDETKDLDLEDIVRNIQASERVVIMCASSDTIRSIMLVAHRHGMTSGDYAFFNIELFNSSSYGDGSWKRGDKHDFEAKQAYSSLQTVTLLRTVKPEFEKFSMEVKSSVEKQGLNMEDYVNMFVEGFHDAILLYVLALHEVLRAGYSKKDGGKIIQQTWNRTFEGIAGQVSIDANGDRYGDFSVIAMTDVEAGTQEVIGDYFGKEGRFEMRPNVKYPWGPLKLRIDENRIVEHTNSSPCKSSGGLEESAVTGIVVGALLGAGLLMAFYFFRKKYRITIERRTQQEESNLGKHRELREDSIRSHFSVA
The experiment in a line: Competitive binding to membranes from cells expressing human NPR-C. Set-up: expressed in transfected cells. The following applies: FIG. 19, in comparison to rat ANP. As for the experimental part: Membrane preparation. Stable cell lines expressing human NPR-A (Lowe and Fendly, J. Biol. Chem. 267:21691-21697 (1992)) or human NPR-C (Cunningham et al., EMBO J 13, 2508-2515 (1994)) were removed from cell culture dishes with 0.5 mM EDTA in phosphate buffered saline (PBS), placed in ice cold PBS and centrifuged at 228 g for 10 min at 4° C. The cell pellets were resuspended in ice-cold homogenization buffer (50 mM HEPES, 1 mM EDTA, 1 mM DTT, 0.25 M sucrose, 0.7 mg/mL pepstatin A, 0.5 mg/mL leupeptin and 1 mM PMSF, pH 7.4). The cells were then homogenized using a Brinkman polytron at setting 5 for 30 sec. The homogenate was centrifuged at 400×g for 10 min at 4° C. The supernatant was collected and centrifuged at 100,000×g for 30 min at 4° C. […] Protein concentrations was determined using the Biorad protein assay with IgG as a standard.
Membrane competition binding assays. […] The plates were washed six times with PBS, then air dried prior to adding scintillant and counted in a Packard Topcount scintillation counter for 1 min/well. Binding was measured in duplicate for each concentration of competitor.
Data analysis. The competition binding curves and cGMP production dose responses were analyzed by the four-parameter logistic equation with the KaleidaGraph™ program (Synergy Software, PA) to obtain estimates of the IC50 or EC50 values. […]

The target of data set [3] is human neutral endopeptidase 24.11 (human) (UniProt P08473). The experiment in a line: cell-based or functional assay.
For data set [4], the target named is T3, human natriuretic peptide clearance receptor-C (human) (UniProt P17342).
T3 sequence (looked up): T2 sequence (P17342 27-541)
Kind of data set: competition binding, Table I; tracer and receptor format not given.

For data set [5], the target named is human natriuretic peptide receptor-A (human) (UniProt P16066). The data set is described as above.
Data set [6] deals with T4, human natriuretic peptide clearance receptor-C (human, UniProt P17342 27-541).
T4 construct: whole, on cells; also called hNPR-C; human NPR-C
T4 sequence (looked up): T2 sequence (P17342 27-541)
The experiment in a line: analysis of variants in receptor binding.

Bridges are numbered along the chain shown (N, C = ends). Where no end group is shown, it is not given here.

What is called half-life is how long it takes for the measured level to halve. Low values mean fast loss, high ones slow loss. One may read the IC50 as the midpoint of a concentration-inhibition curve. A higher IC50 goes with lower potency.

Sequence of human NEP (hNEP), endopeptidase 24.11 (P08473 whole entry): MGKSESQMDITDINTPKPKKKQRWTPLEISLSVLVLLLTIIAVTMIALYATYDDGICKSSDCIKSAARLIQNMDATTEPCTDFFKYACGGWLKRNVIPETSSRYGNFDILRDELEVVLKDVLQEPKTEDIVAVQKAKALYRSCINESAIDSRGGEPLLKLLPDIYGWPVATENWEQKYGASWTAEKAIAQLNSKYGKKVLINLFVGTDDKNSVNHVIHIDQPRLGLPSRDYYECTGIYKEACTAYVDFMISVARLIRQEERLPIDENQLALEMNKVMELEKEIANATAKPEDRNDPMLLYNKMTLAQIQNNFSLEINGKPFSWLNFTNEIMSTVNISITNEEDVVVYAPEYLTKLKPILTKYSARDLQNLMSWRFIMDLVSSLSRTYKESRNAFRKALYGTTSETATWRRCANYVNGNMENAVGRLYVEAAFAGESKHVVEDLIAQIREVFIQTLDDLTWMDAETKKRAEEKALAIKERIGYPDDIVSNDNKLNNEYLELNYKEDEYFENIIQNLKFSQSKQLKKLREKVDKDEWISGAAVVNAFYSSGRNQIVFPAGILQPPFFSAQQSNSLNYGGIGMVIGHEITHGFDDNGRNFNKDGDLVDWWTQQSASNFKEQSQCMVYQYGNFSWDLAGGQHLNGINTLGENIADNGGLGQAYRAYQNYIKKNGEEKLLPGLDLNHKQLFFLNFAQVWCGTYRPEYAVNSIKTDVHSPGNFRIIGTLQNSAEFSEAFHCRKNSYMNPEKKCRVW
Sequence of human neutral endopeptidase 24.11 (human) (P08473 2-750 limits assumed): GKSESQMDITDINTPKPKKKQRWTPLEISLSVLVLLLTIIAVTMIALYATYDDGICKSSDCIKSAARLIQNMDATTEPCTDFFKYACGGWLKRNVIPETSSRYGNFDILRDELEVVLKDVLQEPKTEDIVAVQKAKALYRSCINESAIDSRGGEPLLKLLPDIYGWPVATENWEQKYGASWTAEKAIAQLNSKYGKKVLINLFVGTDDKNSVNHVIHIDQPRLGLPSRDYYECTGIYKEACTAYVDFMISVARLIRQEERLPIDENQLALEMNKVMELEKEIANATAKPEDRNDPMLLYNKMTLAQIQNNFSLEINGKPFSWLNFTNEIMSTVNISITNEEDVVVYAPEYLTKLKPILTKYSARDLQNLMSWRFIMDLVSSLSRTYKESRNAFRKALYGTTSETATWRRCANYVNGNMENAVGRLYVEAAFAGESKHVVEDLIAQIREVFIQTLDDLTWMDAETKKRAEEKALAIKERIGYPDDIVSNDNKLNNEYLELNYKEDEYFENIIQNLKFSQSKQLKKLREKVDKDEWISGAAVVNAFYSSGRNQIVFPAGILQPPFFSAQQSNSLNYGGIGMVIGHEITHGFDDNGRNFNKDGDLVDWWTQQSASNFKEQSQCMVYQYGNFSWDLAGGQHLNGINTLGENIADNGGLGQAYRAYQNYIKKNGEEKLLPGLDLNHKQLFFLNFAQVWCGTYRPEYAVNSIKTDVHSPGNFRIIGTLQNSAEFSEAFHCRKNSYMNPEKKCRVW

The molecule `CC[C@H](C)[C@@H]1NC(=O)[C@H](CCCNC(=N)N)NC(=O)[C@H](CC(=O)O)NC(=O)[C@H]([C@@H](C)CC)NC(=O)[C@H](CO)NC(=O)CNC(=O)[C@H]([C@@H](C)O)NC(=O)[C@H](Cc2ccccc2)NC(=O)[C@@H](N(C)C(=O)[C@H](CO)NC(=O)[C@H](CO)NC(=O)[C@H](CCCNC(=N)N)NC(=O)[C@H](CCCNC(=N)N)NC(=O)[C@H](CC(C)C)NC(=O)[C@@H](N)CO)CSSC[C@@H](C(=O)N[C@@H](CC(N)=O)C(=O)N[C@@H](CO)C(=O)N[C@@H](Cc2ccccc2)C(=O)N[C@@H](CCCNC(=N)N)C(=O)N[C@@H](Cc2ccc(O)cc2)C(=O)O)NC(=O)CNC(=O)[C@H](CC(C)C)NC(=O)CNC(=O)[C@H](CO)NC(=O)[C@H](CCC(N)=O)NC(=O)[C@H](C)NC(=O)[C@H](CCCNC(=N)N)NC1=O` [ANF 82] displayed a half-life at 32 nM/ml in data set [1] of 6.08 h. Regarding `CC[C@H](C)[C@@H]1NC(=O)[C@H](CCCNC(=N)N)NC(=O)[C@H](CC(=O)O)NC(=O)[C@H]([C@@H](C)CC)NC(=O)[C@H](CO)NC(=O)CNC(=O)[C@H]([C@@H](C)O)NC(=O)[C@H](Cc2ccccc2)N(C)C(=O)[C@@H](NC(=O)[C@H](CO)NC(=O)[C@H](CO)NC(=O)[C@H](CCCNC(=N)N)NC(=O)[C@H](CCCNC(=N)N)NC(=O)[C@H](CC(C)C)NC(=O)[C@@H](N)CO)CSSC[C@@H](C(=O)N[C@@H](CC(N)=O)C(=O)N[C@@H](CO)C(=O)N[C@@H](Cc2ccccc2)C(=O)N[C@@H](CCCNC(=N)N)C(=O)N[C@@H](Cc2ccc(O)cc2)C(=O)O)NC(=O)CNC(=O)[C@H](CC(C)C)NC(=O)CNC(=O)[C@H](CO)NC(=O)[C@H](CCC(N)=O)NC(=O)[C@H](C)NC(=O)[C@H](CCCNC(=N)N)NC1=O` [ANF 83], in data set [1], the half-life at 32 nM/ml amounted to 15.5 h. With “Ser-Leu-Arg-Arg-Ser-Ser-Cys-Phe-Gly-Gly-Arg-Ile-Asp-Arg-Ile-Arg-Glu-Ala-Ser-Gly-Leu-Gly-Cys-Asn-Ser-Phe-Arg-Tyr (SEQ ID NO: 24), Cys^7-Cys^23 disulfide (SLRRSSCFGGRIDRIREASGLGCNSFRY; disulfide 7-23) [ANF 99]”, in data set [2], the “Potency in cGMP production compared with rat ANP” value is reported as “equipotent” and the “Stimulation of cGMP production (agonist efficacy)” value was “efficacious”. Further, the “Binding to human NPR-C membranes, competition for 125I-rat ANP” value in the data set with hNPR-C was “reduced affinity”.

With ANF 31 (peptide), in data set [3], the Half-Life came to 2.97 h. Moreover, the values for the IC50 in data set [4] and in data set [5] were 3210 nM and 0.052 nM, respectively. Take SLRRSSCFGGRMDRIRAQSGLGCNSFRY (disulfide 7-23 (inferred), also called hANF G16R) [hANF(1-28) G16R]: the “fold reduction of affinity against wild type” value in data set [6] is approximately 150 fold.

Values taken from patent US6525022B1, “Receptor specific atrial natriuretic peptides” (Genentech, Inc., priority 1993, dated 2003).
